In patent publication US5414076:
Where “and” joins values, the source holds several entries; their conditions need not be identical. Identical values can stand only once.

Molecular target: human GALV receptor protein (gibbon ape leukemia virus receptor) (human)

gibbon ape leukemia virus was tested, and the Foci/3 × 10^4 Cells (PG4 indicator cells) after exposure to GALV (foci/3 × 10^4 cells) was 382 and 1000.
